One block for each sequence: values may come before it.
How the values were obtained:
HLA-A*80:01 = test: IEDB peptide-MHC binding, purified MHC/direct/fluorescence; filed as Kd, often an IC50 or EC50 that approximates it; ≥ and ≤ were set here for values at or beyond the usual limits of such assays
HLA-A*01:01 = test: IEDB peptide-MHC binding, purified MHC/competitive/fluorescence; filed as Kd, often an IC50 or EC50 that approximates it; ≥ and ≤ were set here for values at or beyond the usual limits of such assays
HLA-A*29:02 = test: as above
HLA-B*58:01 = test: as above
HLA-C*05:01 = test: IEDB peptide-MHC binding, purified MHC/direct/fluorescence; filed as Kd, often an IC50 or EC50 that approximates it; ≥ and ≤ were set here for values at or beyond the usual limits of such assays; conditions: source organism: Listeria monocytogenes serotype 4b str. H7858
HLA-C*12:03 = test: as above
HLA-C*03:03 = test: as above
HLA-B*15:02 = test: IEDB peptide-MHC binding, purified MHC/competitive/fluorescence; filed as Kd, often an IC50 or EC50 that approximates it; ≥ and ≤ were set here for values at or beyond the usual limits of such assays
HLA-A*03:01 = test: as above
HLA-A*69:01 = test: as above
HLA-B*51:01 = test: as above
HLA-A*02:11 = test: as above
HLA-B*15:17 = test: as above
HLA-B*39:01 = test: as above
HLA-B*27:03 = test: as above
HLA-B*46:01 = test: as above
HLA-A*02:16 = test: as above
HLA-B*57:01 = test: as above
HLA-A*26:01 = test: as above
HLA-B*15:01 [1] = test: as above
HLA-A*24:03 = test: as above
HLA-A*02:19 = test: as above
HLA-A*02:01 [2] = test: as above
HLA-A*02:12 = test: as above
HLA-B*18:01 = test: as above
HLA-A*68:02 = test: as above
HLA-A*02:03 = test: as above
HLA-A*23:01 = test: as above
HLA-A*31:01 = test: as above; conditions: source organism: Entamoeba histolytica HM-1:IMSS
HLA-C*15:02 = test: IEDB peptide-MHC binding, purified MHC/direct/fluorescence; filed as Kd, often an IC50 or EC50 that approximates it; ≥ and ≤ were set here for values at or beyond the usual limits of such assays
HLA-B*07:02 [3] = test: IEDB peptide-MHC binding, purified MHC/competitive/fluorescence; filed as Kd, often an IC50 or EC50 that approximates it; ≥ and ≤ were set here for values at or beyond the usual limits of such assays
HLA-C*14:02 = test: IEDB peptide-MHC binding, purified MHC/direct/fluorescence; filed as Kd, often an IC50 or EC50 that approximates it; ≥ and ≤ were set here for values at or beyond the usual limits of such assays; conditions: source organism: Homo sapiens
HLA-C*07:02 = test: as above
HLA-B*08:01 [4] = test: IEDB peptide-MHC binding, purified MHC/competitive/fluorescence; ≥ and ≤ were set here for values at or beyond the usual limits of such assays; conditions: source organism: Zaire ebolavirus
HLA-B*15:01 [5] = test: as above; conditions: source organism: Zaire ebolavirus
HLA-A*24:02 = test: as above; conditions: source organism: Zaire ebolavirus
HLA-B*07:02 [6] = test: as above; conditions: source organism: Zaire ebolavirus
HLA-A*02:01 [7] = test: as above; conditions: source organism: Zaire ebolavirus
HLA-B*08:01 [8] = test: IEDB peptide-MHC binding, purified MHC/competitive/fluorescence; filed as Kd, often an IC50 or EC50 that approximates it; ≥ and ≤ were set here for values at or beyond the usual limits of such assays; conditions: source organism: Yersinia pestis Nepal516
[9] = source organism: human gammaherpesvirus 4
[10] = source organism: Listeria monocytogenes serotype 4b str. H7858
[11] = source organism: Orthomarburgvirus marburgense
[12] = source organism: Entamoeba histolytica HM-1:IMSS
[13] = source organism: Vibrio cholerae V52
[14] = source organism: Salmonella enterica subsp. enterica serovar Typhi
[15] = source organism: Shigella flexneri 5 str. 8401
[16] = source organism: Escherichia coli O139:H28 str. E24377A
[17] = source organism: Yersinia pestis Nepal516
[18] = source organism: Escherichia coli E22

Kd (HLA-A*80:01; source organism: Mus musculus): 0.0195 µM
Kd (HLA-A*01:01; source organism: Mus musculus): ≥ 20 µM
Kd (HLA-A*29:02; source organism: Mus musculus): 0.0002 µM
Sequence: AFFAERLYY

Sequence: ATVKGMQSY
Kd (HLA-B*58:01; [9]): 4.38 µM

Sequence: FLMYPNNIF
Kd (HLA-C*05:01): 0.266 µM
Kd (HLA-C*12:03; [10]): 0.178 µM
Kd (HLA-C*03:03; [10]): 0.015 µM
Kd (HLA-B*15:02; [10]): 0.0057 µM

Sequence: GIADFIIFK
Kd (HLA-A*03:01; [11]): 0.188 µM
Kd (HLA-A*69:01; [11]): ≥ 20 µM
Kd (HLA-B*51:01; [11]): ≥ 20 µM
Kd (HLA-A*02:11; [11]): ≥ 20 µM
Kd (HLA-B*15:17; [11]): ≥ 20 µM
Kd (HLA-B*39:01; [11]): ≥ 20 µM
Kd (HLA-B*27:03; [11]): ≥ 20 µM
Kd (HLA-B*46:01; [11]): ≥ 20 µM
Kd (HLA-A*02:16; [11]): ≥ 20 µM
Kd (HLA-B*57:01; [11]): ≥ 20 µM
Kd (HLA-A*26:01; [11]): ≥ 20 µM
Kd (HLA-B*15:01 [1]; [11]): ≥ 20 µM
Kd (HLA-A*24:03; [11]): ≥ 20 µM
Kd (HLA-A*29:02; [11]): ≥ 20 µM
Kd (HLA-A*02:19; [11]): ≥ 20 µM
Kd (HLA-A*02:01 [2]; [11]): ≥ 20 µM
Kd (HLA-A*02:12; [11]): ≥ 20 µM
Kd (HLA-B*18:01; [11]): ≥ 20 µM
Kd (HLA-A*68:02; [11]): ≥ 20 µM
Kd (HLA-A*02:03; [11]): ≥ 20 µM
Kd (HLA-A*23:01; [11]): ≥ 20 µM

Sequence: HLWNHNQQM
Kd (HLA-B*15:02; source organism: Venezuelan equine encephalitis virus): 0.0499 µM

Sequence: IGKMNKHYK
Kd (HLA-A*03:01; [12]): ≥ 20 µM
Kd (HLA-A*69:01; [12]): ≥ 20 µM
Kd (HLA-B*51:01; [12]): ≥ 20 µM
Kd (HLA-A*02:11; [12]): ≥ 20 µM
Kd (HLA-B*15:17; [12]): ≥ 20 µM
Kd (HLA-B*39:01; [12]): ≥ 20 µM
Kd (HLA-B*27:03; [12]): ≥ 20 µM
Kd (HLA-A*31:01): 0.16 µM
Kd (HLA-B*46:01; [12]): ≥ 20 µM
Kd (HLA-A*02:16; [12]): ≥ 20 µM
Kd (HLA-B*57:01; [12]): ≥ 20 µM
Kd (HLA-A*26:01; [12]): ≥ 20 µM
Kd (HLA-B*15:01 [1]; [12]): ≥ 20 µM
Kd (HLA-A*24:03; [12]): ≥ 20 µM
Kd (HLA-A*29:02; [12]): ≥ 20 µM
Kd (HLA-A*02:19; [12]): ≥ 20 µM
Kd (HLA-A*02:01 [2]; [12]): ≥ 20 µM
Kd (HLA-A*02:12; [12]): ≥ 20 µM
Kd (HLA-B*18:01; [12]): ≥ 20 µM
Kd (HLA-A*68:02; [12]): ≥ 20 µM
Kd (HLA-A*02:03; [12]): ≥ 20 µM

Sequence: IGYRLGMGK
Kd (HLA-A*03:01; [13]): 0.0135 µM
Kd (HLA-A*69:01; [13]): ≥ 20 µM
Kd (HLA-B*51:01; [13]): ≥ 20 µM
Kd (HLA-A*02:11; [13]): ≥ 20 µM
Kd (HLA-B*15:17; [13]): ≥ 20 µM
Kd (HLA-B*39:01; [13]): ≥ 20 µM
Kd (HLA-B*27:03; [13]): ≥ 20 µM
Kd (HLA-B*46:01; [13]): ≥ 20 µM
Kd (HLA-A*02:16; [13]): ≥ 20 µM
Kd (HLA-B*57:01; [13]): ≥ 20 µM
Kd (HLA-A*26:01; [13]): ≥ 20 µM
Kd (HLA-B*15:01 [1]; [13]): ≥ 20 µM
Kd (HLA-A*24:03; [13]): ≥ 20 µM
Kd (HLA-A*29:02; [13]): ≥ 20 µM
Kd (HLA-A*02:19; [13]): ≥ 20 µM
Kd (HLA-A*02:01 [2]; [13]): ≥ 20 µM
Kd (HLA-A*02:12; [13]): ≥ 20 µM
Kd (HLA-B*18:01; [13]): ≥ 20 µM
Kd (HLA-A*68:02; [13]): ≥ 20 µM
Kd (HLA-A*02:03; [13]): ≥ 20 µM
Kd (HLA-A*23:01; [13]): ≥ 20 µM

Sequence: ILLARLFLY
Kd (HLA-A*80:01; [9]): 0.0033 µM
Kd (HLA-A*03:01; [9]): 2.06 µM

Sequence: ITLKVFAGY
Kd (HLA-A*03:01; [14]): 2.69 µM
Kd (HLA-B*58:01; [14]): 0.0116 µM
Kd (HLA-A*26:01; [14]): 0.287 µM

Sequence: KVHLTPAQL
Kd (HLA-C*15:02; [15]): ≥ 20 µM
Kd (HLA-B*07:02 [3]; [15]): 0.154 µM

Kd (HLA-B*07:02 [3]; [16]): 0.0974 µM
Kd (HLA-B*51:01; [16]): ≥ 20 µM
Sequence: LPRDASQIT

Kd (HLA-C*14:02): 0.246 µM
Kd (HLA-C*07:02; source organism: Homo sapiens): 0.238 µM
Kd (HLA-C*15:02; source organism: Homo sapiens): ≥ 20 µM
Kd (HLA-A*01:01; source organism: Homo sapiens): 1.08 µM
Kd (HLA-A*29:02; source organism: Homo sapiens): ≤ 0.0001 µM
Sequence: MLYPRVWPY

Sequence: MMQGTPYVY
Kd (HLA-B*15:02; source organism: Vibrio antiquarius): 0.0059 µM

Sequence: PVMNHKNKF
IC50 (HLA-B*08:01 [4]): 11 µM
IC50 (HLA-B*15:01 [5]): ≥ 364 µM
IC50 (HLA-A*24:02): 0.106 µM

Sequence: RTAKVKNEV
IC50 (HLA-B*07:02 [6]): 10.3 µM
IC50 (HLA-B*08:01 [4]): 56.8 µM
IC50 (HLA-A*02:01 [7]): 57.2 µM
IC50 (HLA-A*24:02): ≥ 75.3 µM

Sequence: SDMDYHKIL
IC50 (HLA-B*08:01 [4]): ≥ 177 µM
IC50 (HLA-A*02:01 [7]): ≥ 241 µM
IC50 (HLA-A*24:02): ≥ 145 µM

Sequence: SLFVRSAGQ
Kd (HLA-B*15:02; source organism: Burkholderia mallei JHU): ≥ 20 µM

Sequence: VVEKQSGLY
Kd (HLA-A*80:01; source organism: West Nile virus): 0.0008 µM

Sequence: YIYTRSFQM
Kd (HLA-C*07:02; [17]): 0.163 µM
Kd (HLA-B*08:01 [8]): 0.0487 µM
Kd (HLA-A*26:01; [17]): 0.593 µM
Kd (HLA-B*15:01 [1]; [17]): 0.351 µM
Kd (HLA-A*02:01 [2]; [17]): 0.0004 µM

Kd (HLA-C*12:03; source organism: Homo sapiens): 0.088 µM
Kd (HLA-C*03:03; source organism: Homo sapiens): 0.371 µM
Kd (HLA-C*15:02; source organism: Homo sapiens): 0.372 µM
Sequence: YMNGTMSQV

Kd (HLA-A*03:01; [18]): ≥ 20 µM
Kd (HLA-A*69:01; [18]): ≥ 20 µM
Kd (HLA-B*51:01; [18]): ≥ 20 µM
Kd (HLA-A*02:11; [18]): ≥ 20 µM
Kd (HLA-B*15:17; [18]): ≥ 20 µM
Kd (HLA-B*27:03; [18]): ≥ 20 µM
Kd (HLA-B*46:01; [18]): ≥ 20 µM
Kd (HLA-A*02:16; [18]): ≤ 0.0001 µM
Kd (HLA-B*57:01; [18]): ≥ 20 µM
Kd (HLA-A*26:01; [18]): ≥ 20 µM
Kd (HLA-B*15:01 [1]; [18]): ≥ 20 µM
Kd (HLA-A*24:03; [18]): ≥ 20 µM
Kd (HLA-A*29:02; [18]): ≥ 20 µM
Kd (HLA-A*02:19; [18]): ≥ 20 µM
Kd (HLA-A*02:01 [2]; [18]): 0.0004 µM
Kd (HLA-A*02:12; [18]): ≥ 20 µM
Kd (HLA-B*18:01; [18]): ≥ 20 µM
Kd (HLA-A*23:01; [18]): ≥ 20 µM
Sequence: YQTYVSPGA

From the Immune Epitope Database (IEDB)
